{"source": "the supplement of paper PMC9112550", "about": "“Optimization of the antimicrobial peptide Bac7 by deep mutational scanning” (BMC Biology, 2022);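 also: peptides expressed intracellularly from a pBAD plasmid library in pooled LB shake-flask culture, induced with 0.3% L-arabinose, DNA abundance read by NGS, three biological replicates, DESeq2 with apeglm shrinkage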"}
{"tested_on": "Escherichia coli TOP10", "test": "shrunken log2 fold change of peptide-encoding DNA abundance (4.5 h post-induction vs induction); higher = less antimicrobial activity (less host growth inhibition)", "settings": "time post-induction: 4.5 h; library: site-saturation at positions 5, 18, 19, 20"}
{"sequence": "RRIRRRPPRLPRPRPRPDEKPRP", "shrunken log2 fold change": 0.135}
{"sequence": "RRIRPRPPRLPRPRPRPPARPRP", "shrunken log2 fold change": 0.748}
{"sequence": "RRIRYRPPRLPRPRPRPATVPRP", "shrunken log2 fold change": -0.042}
{"sequence": "RRIRHRPPRLPRPRPRPYKKPRP", "shrunken log2 fold change": -0.0963}
{"sequence": "RRIRSRPPRLPRPRPRPHIMPRP", "shrunken log2 fold change": -0.393}
{"sequence": "RRIRMRPPRLPRPRPRPRPHPRP", "shrunken log2 fold change": 1.05}
{"sequence": "RRIRYRPPRLPRPRPRPTLIPRP", "shrunken log2 fold change": -0.743}
{"sequence": "RRIRRRPPRLPRPRPRPQPSPRP", "shrunken log2 fold change": 0.231}
{"sequence": "RRIRARPPRLPRPRPRPLFPPRP", "shrunken log2 fold change": 0.148}
{"sequence": "RRIRKRPPRLPRPRPRPHCYPRP", "shrunken log2 fold change": -0.605}
{"sequence": "RRIRCRPPRLPRPRPRPICDPRP", "shrunken log2 fold change": -0.0093}
{"sequence": "RRIRPRPPRLPRPRPRPDIYPRP", "shrunken log2 fold change": -0.0306}
{"sequence": "RRIRMRPPRLPRPRPRPHSSPRP", "shrunken log2 fold change": 0.0203}
{"sequence": "RRIRPRPPRLPRPRPRPQADPRP", "shrunken log2 fold change": 0.154}
{"sequence": "RRIRFRPPRLPRPRPRPECHPRP", "shrunken log2 fold change": 0.0585}
{"sequence": "RRIRTRPPRLPRPRPRPTIQPRP", "shrunken log2 fold change": -0.0327}
{"sequence": "RRIRLRPPRLPRPRPRPTMDPRP", "shrunken log2 fold change": -0.0334}
{"sequence": "RRIRIRPPRLPRPRPRPYMWPRP", "shrunken log2 fold change": -0.198}
{"sequence": "RRIRARPPRLPRPRPRPPGHPRP", "shrunken log2 fold change": 0.779}
{"sequence": "RRIRQRPPRLPRPRPRPISDPRP", "shrunken log2 fold change": 0.0109}
{"sequence": "RRIRDRPPRLPRPRPRPITWPRP", "shrunken log2 fold change": 0.098}
{"sequence": "RRIRWRPPRLPRPRPRPNRAPRP", "shrunken log2 fold change": 0.0222}
{"sequence": "RRIRIRPPRLPRPRPRPPRKPRP", "shrunken log2 fold change": 0.0691}
{"sequence": "RRIRNRPPRLPRPRPRPGVFPRP", "shrunken log2 fold change": 0.117}
{"sequence": "RRIRNRPPRLPRPRPRPFTNPRP", "shrunken log2 fold change": 0.00408}
{"sequence": "RRIRIRPPRLPRPRPRPSSTPRP", "shrunken log2 fold change": -0.955}
{"sequence": "RRIRQRPPRLPRPRPRPHKYPRP", "shrunken log2 fold change": -1.21}
{"sequence": "RRIRRRPPRLPRPRPRPQDGPRP", "shrunken log2 fold change": 0.106}
{"sequence": "RRIRLRPPRLPRPRPRPVYAPRP", "shrunken log2 fold change": 0.00563}
{"sequence": "RRIRLRPPRLPRPRPRPWTDPRP", "shrunken log2 fold change": -0.279}
{"sequence": "RRIRSRPPRLPRPRPRPCHPPRP", "shrunken log2 fold change": 0.0162}
{"sequence": "RRIRFRPPRLPRPRPRPMRVPRP", "shrunken log2 fold change": 0.973}
{"sequence": "RRIRWRPPRLPRPRPRPSMGPRP", "shrunken log2 fold change": 0.033}
{"sequence": "RRIRNRPPRLPRPRPRPMAPPRP", "shrunken log2 fold change": -0.0631}
{"sequence": "RRIRCRPPRLPRPRPRPKANPRP", "shrunken log2 fold change": 1.15}
{"sequence": "RRIRARPPRLPRPRPRPKQTPRP", "shrunken log2 fold change": 0.453}
{"sequence": "RRIRCRPPRLPRPRPRPQQDPRP", "shrunken log2 fold change": -0.046}
{"sequence": "RRIRMRPPRLPRPRPRPMEIPRP", "shrunken log2 fold change": -0.129}
{"sequence": "RRIRFRPPRLPRPRPRPSYEPRP", "shrunken log2 fold change": 1.66}
{"sequence": "RRIRPRPPRLPRPRPRPLPDPRP", "shrunken log2 fold change": 0.179}
{"sequence": "RRIRNRPPRLPRPRPRPTSEPRP", "shrunken log2 fold change": 0.194}
{"sequence": "RRIRVRPPRLPRPRPRPRDYPRP", "shrunken log2 fold change": -0.0816}
{"sequence": "RRIRQRPPRLPRPRPRPTYCPRP", "shrunken log2 fold change": -0.0981}
{"sequence": "RRIRQRPPRLPRPRPRPFMRPRP", "shrunken log2 fold change": -0.0303}
{"sequence": "RRIRYRPPRLPRPRPRPHPLPRP", "shrunken log2 fold change": -0.719}
{"sequence": "RRIRLRPPRLPRPRPRPLVYPRP", "shrunken log2 fold change": -0.335}
{"sequence": "RRIRSRPPRLPRPRPRPMCWPRP", "shrunken log2 fold change": 0.318}
{"sequence": "RRIRRRPPRLPRPRPRPEAAPRP", "shrunken log2 fold change": 1.31}
{"sequence": "RRIRMRPPRLPRPRPRPKFTPRP", "shrunken log2 fold change": 0.313}
{"sequence": "RRIRVRPPRLPRPRPRPNKNPRP", "shrunken log2 fold change": 0.0192}
{"sequence": "RRIRSRPPRLPRPRPRPWHGPRP", "shrunken log2 fold change": -0.00232}
{"sequence": "RRIRKRPPRLPRPRPRPDMLPRP", "shrunken log2 fold change": -0.0389}
{"sequence": "RRIRDRPPRLPRPRPRPCKFPRP", "shrunken log2 fold change": 0.0155}
{"sequence": "RRIRNRPPRLPRPRPRPMWFPRP", "shrunken log2 fold change": 0.0647}
{"sequence": "RRIRGRPPRLPRPRPRPTHRPRP", "shrunken log2 fold change": 0.454}
{"sequence": "RRIRYRPPRLPRPRPRPGPMPRP", "shrunken log2 fold change": -0.148}
{"sequence": "RRIRDRPPRLPRPRPRPTVGPRP", "shrunken log2 fold change": 0.351}
{"sequence": "RRIRIRPPRLPRPRPRPCFIPRP", "shrunken log2 fold change": -0.503}
{"sequence": "RRIRERPPRLPRPRPRPYPMPRP", "shrunken log2 fold change": -0.172}
{"sequence": "RRIRVRPPRLPRPRPRPHRPPRP", "shrunken log2 fold change": -0.243}
{"sequence": "RRIRIRPPRLPRPRPRPLHYPRP", "shrunken log2 fold change": -0.779}
{"sequence": "RRIRWRPPRLPRPRPRPGLVPRP", "shrunken log2 fold change": 0.449}
{"sequence": "RRIRARPPRLPRPRPRPVKFPRP", "shrunken log2 fold change": -0.0699}
{"sequence": "RRIRPRPPRLPRPRPRPNCHPRP", "shrunken log2 fold change": 0.0382}
{"sequence": "RRIRPRPPRLPRPRPRPRVAPRP", "shrunken log2 fold change": 0.743}
{"sequence": "RRIRNRPPRLPRPRPRPKRPPRP", "shrunken log2 fold change": 0.589}
{"sequence": "RRIRTRPPRLPRPRPRPTSYPRP", "shrunken log2 fold change": -0.268}
{"sequence": "RRIRDRPPRLPRPRPRPAYFPRP", "shrunken log2 fold change": 0.128}
{"sequence": "RRIRMRPPRLPRPRPRPMIDPRP", "shrunken log2 fold change": -0.0842}
{"sequence": "RRIRWRPPRLPRPRPRPIIGPRP", "shrunken log2 fold change": 0.0626}
{"sequence": "RRIRVRPPRLPRPRPRPTSSPRP", "shrunken log2 fold change": -0.0575}
{"sequence": "RRIRKRPPRLPRPRPRPHYNPRP", "shrunken log2 fold change": -0.428}
{"sequence": "RRIRDRPPRLPRPRPRPYIRPRP", "shrunken log2 fold change": -0.12}
{"sequence": "RRIRWRPPRLPRPRPRPCNYPRP", "shrunken log2 fold change": -0.2}
{"sequence": "RRIRVRPPRLPRPRPRPSEKPRP", "shrunken log2 fold change": 0.268}
